Measurements reported in US20210179684A1.

Key:
[1] = molecular target: p75 neurotrophin receptor on cells (NIH-p75); assay: flow cytometry on NIH-p75 cells; 20 nM Biotin-NT3, fluorescent avidin; no competitor
[2] = molecular target: TrkC receptor on cells (NIH-TrkC); assay: flow cytometry on NIH-TrkC cells; 20 nM Biotin-NT3, fluorescent avidin; no competitor
[3] = molecular target: TrkA receptor on cells (NIH-TrkA); assay: flow cytometry on NIH-TrkA cells; 20 nM Biotin-NT3, fluorescent avidin; no competitor
[4] = molecular target: p75 neurotrophin receptor on cells (NIH-p75); assay: competition flow cytometry on NIH-p75 cells; 20 nM Biotin-NT3 tracer, cold competitor at 200 nM; value is the tracer signal left
[5] = molecular target: p75 neurotrophin receptor on cells (NIH-p75); assay: competition flow cytometry on NIH-p75 cells; 20 nM Biotin-NT3 tracer, cold competitor at 200 nM; value is the tracer binding left
[6] = molecular target: TrkC receptor on cells (NIH-TrkC); assay: competition flow cytometry on NIH-TrkC cells; 20 nM Biotin-NT3 tracer, cold competitor at 200 nM; value is the tracer binding left
[7] = molecular target: TrkA receptor on cells (NIH-TrkA); assay: competition flow cytometry on NIH-TrkA cells; 20 nM Biotin-NT3 tracer, cold competitor in 3-fold excess; value is the tracer signal left
[8] = molecular target: TrkC receptor on cells (NIH-TrkC); assay: cell-based or functional assay
[9] = molecular target: TrkC receptor on cells (NIH-TrkC); assay: competition flow cytometry on NIH-TrkC cells; 20 nM Biotin-NT3 tracer, cold competitor at 200 nM; value is the tracer signal left
[10] = molecular target: TrkA receptor on cells (NIH-TrkA); assay: competition flow cytometry on NIH-TrkA cells; 20 nM Biotin-NT3 tracer, cold competitor in 3-fold excess; value is the tracer binding left

Substance	MCF (mean channel fluorescence) [1]	MCF (mean channel fluorescence) [2]	MCF (mean channel fluorescence) [3]	MCF (mean channel fluorescence) [4]	% of maximal binding to p75 [5]	% of maximal binding to TrkC [6]	MCF (mean channel fluorescence) [7]	% survival at 0.1 nM in culture [8]	MCF (mean channel fluorescence) [9]	% of maximal binding to TrkA [10]
Biotin-NT-3 (wild type NT-3 covalently linked to biotin, tracer) (from UniProt P18280 140-258) (ligand)	76	93	38							
NT-3 mutant (SEQ ID NO: 23), D15A/R114A/K115A (from UniProt P18280 140-258) (ligand)				69	89%	13%	16			
Wild type NT-3 (neurotrophin 3, mature form), unlabeled (from UniProt P18280 140-258) (ligand)						18%	20	34%	25	36%
